In patent US20170137512A1:
Read-outs that look alike come from different tables or passages of the source.

Legend:
[1] = molecular target: human Kv1.3 (Homo sapiens), P22001; assay: cell-based or functional assay
[2] = molecular target: human Kv1.3 (Homo sapiens), P22001
[3] = molecular target: human Kv1.3 (Homo sapiens), P22001; assay: cell-based or functional assay; remark: listed apart in the source
[4] = molecular target: human Kv1.3 (Homo sapiens), P22001; remark: listed apart in the source
[5] = molecular target: T1, cyno Kv1.3 (Macaca fascicularis)
T1 chain: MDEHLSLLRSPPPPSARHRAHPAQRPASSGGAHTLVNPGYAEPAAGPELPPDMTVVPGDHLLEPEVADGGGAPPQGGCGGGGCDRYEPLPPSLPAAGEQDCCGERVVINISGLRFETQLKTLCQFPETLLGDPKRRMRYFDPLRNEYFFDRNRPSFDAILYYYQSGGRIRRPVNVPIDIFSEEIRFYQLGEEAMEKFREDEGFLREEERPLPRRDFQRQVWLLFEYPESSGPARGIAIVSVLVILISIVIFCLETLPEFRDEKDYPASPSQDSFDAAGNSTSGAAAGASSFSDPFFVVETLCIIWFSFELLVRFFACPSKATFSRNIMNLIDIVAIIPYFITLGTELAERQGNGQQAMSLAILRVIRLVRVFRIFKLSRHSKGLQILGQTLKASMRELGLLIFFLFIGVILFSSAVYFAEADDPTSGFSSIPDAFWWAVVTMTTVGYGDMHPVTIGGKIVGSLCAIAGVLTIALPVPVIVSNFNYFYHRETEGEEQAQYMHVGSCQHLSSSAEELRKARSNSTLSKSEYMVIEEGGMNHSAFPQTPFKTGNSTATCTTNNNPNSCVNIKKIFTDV

[6] = molecular target: human Kv1.3 (Homo sapiens) (UniProt P22001); assay: cell-based or functional assay
[7] = molecular target: T1, cyno Kv1.3 (Macaca fascicularis); assay: titration of radiolabeled margatoxin on CHO-cyKv1.3 cells

B1: ShK-1aJ (Smartox, #08SHK001), P29187 1-35 (peptide)
peptide: RSCIDTIPKSRCTAFQCKHSMKYRLSFCRKTCGTC
modifications: not checked
- Average IC50, Kv1.3 current, IonFlux automated patch clamp, HEK293H cells [1]: 0.076 nM
- Average IC50, Kv1.3 current, IonWorks perforated patch clamp, CHL cells [1]: 0.4 nM
- IC50, CD25 read out, CCR7-CD45RA- T cells stimulated with anti-CD3 [1]: 0.27 nM
- IC50, CD25 read out, T cell activation assay [1]: 0.73 nM
- IC50, CD25 read out, T cell activation assay, with 10 µM HSA [1]: 0.038 nM
- IC50, IFNγ production, T-cell activation assay [1]: 0.041 nM
- IC50, IFNγ read out, CCR7-CD45RA- T cells stimulated with anti-CD3 [1]: 0.076 nM
- IC50, IFNγ read out, T cell activation assay [1]: 0.14 nM
- IC50, IFNγ read out, T cell activation assay, with 10 µM HSA [1]: 0.027 nM
- % inhibition [2]: 102%
- IC50, CD25 read out, CCR7-CD45RA- T cells stimulated with anti-CD3 [3]: 0.22 nM
- IC50, IFNγ read out, CCR7-CD45RA- T cells stimulated with anti-CD3 [3]: 0.065 nM
- IC50 (read off the curve) [4]: 10 nM
- IC50 [5]: 0.24 nM

B2: A0194016B04 (VHH, not shown: small tags and cut ends)
VHH: EVQLVESGGGLVQAGGSLRLSCSASGLLFSVNSAGWYRQAPGKQRDFVARIRSGGSTNYADSVKGRFTISRDKATNTLYLQMNNLKPEDTAVYYCSSWRTEAYEYWGRGTLVTVSS
- Average IC50, Kv1.3 current, IonFlux automated patch clamp, HEK293H cells [6]: 84 nM
- Average IC50, Kv1.3 current, IonWorks perforated patch clamp, CHL cells [6]: 34 nM

B3: A0194020A06 (VHH, not shown: small tags and cut ends)
VHH: EVQLVESGGGLVQAGGSLGLSCSASGLLFSRNSAGWYRQAPGKRREFVARIRMGGSINYADSVKGRFTVSRDNAKNMMYLQMNDLKPEDTAVYFCSGWREGFYEYWGQGTLVTVSS
- Average IC50, Kv1.3 current, IonFlux automated patch clamp, HEK293H cells [6]: 13.4 nM
- IC50, CD25 read out, CCR7-CD45RA- T cells stimulated with anti-CD3 [6]: 36 nM
- IC50, IFNγ read out, CCR7-CD45RA- T cells stimulated with anti-CD3 [6]: 30 nM

B4: unlabeled margatoxin (Alamone labs, Cat RTM-325), P40755 1-39 (peptide)
peptide: TIINVKCTSPKQCLPPCKAQFGQSAGAKCMNGKCKCYPH
modifications: not checked
- IC50, IFNγ read out, CCR7-CD45RA- T cells stimulated with anti-CD3 [1]: 0.094 nM
- IC50 [5]: 0.24 nM

B5: 125I-margatoxin (Perkin Elmer, NEX083), P40755 1-39 (peptide)
peptide: B4 peptide
modifications: not checked
- EC30 [7]: 0.15 nM
